Measured values reported in paper PMC7494424 (Nature methods, 2019).

B1: P. falciparum M18 aspartyl aminopeptidase (enzyme, UniProt Q8I2J3 1-570, looked up)
chain: MDKKAREYAQDALKFIQRSGSNFLACKNLKERLENNGFINLSEGETWNLNKNEGYVLCKENRNICGFFVGKNFNIDTGSILISIGHIDSCALKISPNNNVIKKKIHQINVECYGSGLWHTWFDRSLGLSGQVLYKKGNKLVEKLIQINKSVLFLPSLAIHLQNRTRYDFSVKINYENHIKPIISTTLFNQLNKCKRNNVHHDTILTTDTKFSHKENSQNKRDDQMCHSFNDKDVSNHNLDKNTIEHLTNQQNEEKNKHTKDNPNSKDIVEHINTDNSYPLLYLLSKELNCKEEDILDFELCLMDTQEPCFTGVYEEFIEGARFDNLLGSFCVFEGFIELVNSIKNHTSNENTNHTNNITNDINDNIHNNLYISIGYDHEEIGSLSEVGARSYCTKNFIDRIISSVFKKEIHEKNLSVQEIYGNLVNRSFILNVDMAHCSHPNYPETVQDNHQLFFHEGIAIKYNTNKNYVTSPLHASLIKRTFELYYNKYKQQIKYQNFMVKNDTPCGSTVGSMVAANLSMPGIDIGIPQLAMHSIREIAAVHDVFFLIKGVFAFYTYYNQVLSTCVHDK
B2: P. falciparum glutamine synthetase (enzyme, UniProt C0H551 1-543, looked up)
chain: MKSVSFSNNAELYEYIKDKKNDVEIVACIITNLLGTYFKCFFYVKEITLNKLESGFSFDASSIKLCSDTEVSDFFIKVDHSTCYLEECDGKNILNIMCDIKRYNGFDYYKCPRTILKKTCEFVKNEGIADKVCIGNELEFFIFDKVNYSLDEYNTYLKVYDRESFSCKNDLSSIYGNHVVNKVEPHKDHFNNPNNEYLINDDSKKVKKKSGYFTTDPYDTSNIIKLRICRALNDMNINVQRYHHEVSTSQHEISLKYFDALTNADFLLITKQIIKTTVSSFNRTATFMPKPLVNDNGNGLHCNISLWKNNKNIFYHNDPSTFFLSKESFYFMYGIVKHAKALQAFCNATMNSYKRLVPGFETCQKLFYSFGSRSAVIRLSLINYSNPSEKRIEFRLPDCANSPHLVMAAIILAGYDGIKSKEQPLVPFESKDNHFYISSIFSKYVQHPENFNILTHALEGYESLHTINESPEFKNFFKCEEPQGISFSLVESLDALEKDHAFLTVNNIFTEEMIQEYIKFKREEIDAYNKYVNAYDYHLYYEC

Target: the molecule itself
Assay: cryo-EM structure

Row | Protein | stoichiometry N
1 | B1 | 12
2 | B2 | 12
